Measurements taken from article PMC8959180.

How the values were obtained:
[1] = biological target: ReoM-His (L. monocytogenes) (UniProt P60357); assay: pull-down + cross-linking; L. monocytogenes ΔclpC strains making ReoM-His were cross-linked in vivo with formaldehyde; ReoM-His purified on MagneHis magnetic beads, decrosslinked by heat; MurA in the eluates detected by Western blot and quantified by densitometry
[2] = biological target: MurA N197D-Strep (L. monocytogenes) (UniProt Q8Y4C4); assay: SPR
[3] = biological target: MurA S262L-Strep (L. monocytogenes) (UniProt Q8Y4C4); assay: SPR
[4] = biological target: MurA-Strep (L. monocytogenes) (UniProt Q8Y4C4); assay: SPR

UniProt P60357, sequence (P60357 whole entry): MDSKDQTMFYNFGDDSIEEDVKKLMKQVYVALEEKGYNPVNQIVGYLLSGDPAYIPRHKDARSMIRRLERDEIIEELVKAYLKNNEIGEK

Substance	percent of wt MurA level copurified [1] [%]	Kd [2] [µM]	Kd [3] [µM]	Kd [4] [µM]	koff [4] [s⁻¹]	kon [4] [M⁻¹ s⁻¹]
MurA N197D (chromosomal allele, strain LMPR14) (from UniProt Q8Y4C4 1-430) (enzyme)	13	–	–	–	–	–
MurA S262L (chromosomal allele, strain LMPR13) (from UniProt Q8Y4C4 1-430) (enzyme)	19	–	–	–	–	–
recombinant ReoM (from UniProt P60357 1-90) (natural protein)	–	0.7	0.8	0.9	0.0004	500
